Experimental data as given in patent US20170022292A1 (Novartis, published 2017).

Columns and labels:
[1] = target: T1, human FXI zymogen (human, UniProt P03951 19-625); assay: cell-based or functional assay
[2] = target: T2, human FXI activated (human Factor XIa, full length) (human, UniProt P03951 19-387; P03951 388-625); assay: cell-based or functional assay
[3] = target: T3, cynomolgus monkey FXI zymogen (cynomolgus monkey, UniProt A0A2K5VVW4 19-624); assay: solution equilibrium titration (SET); apparent KD, N=2; cynomolgus monkey FXI zymogen; apparent KD, SET, N=2
T3 construct: also called free FXI (FXIf) in cynomolgus plasma
T3 sequence (A0A2K5VVW4 entry or part of it): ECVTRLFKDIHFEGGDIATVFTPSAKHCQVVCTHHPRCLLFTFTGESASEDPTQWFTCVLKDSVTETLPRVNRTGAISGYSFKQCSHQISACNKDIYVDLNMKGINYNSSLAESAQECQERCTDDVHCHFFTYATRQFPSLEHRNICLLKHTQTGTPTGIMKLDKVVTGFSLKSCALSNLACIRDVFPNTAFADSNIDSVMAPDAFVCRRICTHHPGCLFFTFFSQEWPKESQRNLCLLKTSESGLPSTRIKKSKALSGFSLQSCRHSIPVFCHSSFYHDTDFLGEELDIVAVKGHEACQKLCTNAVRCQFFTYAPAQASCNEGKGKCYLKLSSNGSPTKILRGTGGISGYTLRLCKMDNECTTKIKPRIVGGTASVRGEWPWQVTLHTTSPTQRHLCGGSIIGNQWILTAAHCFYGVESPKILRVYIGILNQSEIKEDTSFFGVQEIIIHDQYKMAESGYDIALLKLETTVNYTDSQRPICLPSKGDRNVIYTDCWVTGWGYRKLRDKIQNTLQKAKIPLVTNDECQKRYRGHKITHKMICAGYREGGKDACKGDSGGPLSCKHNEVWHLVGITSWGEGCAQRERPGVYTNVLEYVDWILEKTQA

[4] = target: T4, activated cynomolgus monkey FXI (cynomolgus monkey, UniProt A0A2K5VVW4 19-387; A0A2K5VVW4 388-625); assay: solution equilibrium titration (SET); apparent KD, N=2; activated cynomolgus monkey FXI; apparent KD, SET, N=2
T4 construct: also called cynomolgus monkey FXIa; cynomolgus monkey FXI (active form)
T4 sequence (chain, as listed by the source, form in doubt, chain 1 of 2): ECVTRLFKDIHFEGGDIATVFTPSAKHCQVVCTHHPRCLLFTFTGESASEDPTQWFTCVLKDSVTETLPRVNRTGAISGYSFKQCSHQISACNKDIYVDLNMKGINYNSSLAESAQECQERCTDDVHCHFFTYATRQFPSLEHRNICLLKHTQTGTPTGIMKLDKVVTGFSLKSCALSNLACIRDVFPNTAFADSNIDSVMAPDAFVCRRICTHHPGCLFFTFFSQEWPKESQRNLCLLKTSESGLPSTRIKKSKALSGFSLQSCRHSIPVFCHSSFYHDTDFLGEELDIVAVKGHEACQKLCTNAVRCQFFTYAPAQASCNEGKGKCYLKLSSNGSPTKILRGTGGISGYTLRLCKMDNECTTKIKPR
T4 sequence (chain, as listed by the source, form in doubt, chain 2 of 2): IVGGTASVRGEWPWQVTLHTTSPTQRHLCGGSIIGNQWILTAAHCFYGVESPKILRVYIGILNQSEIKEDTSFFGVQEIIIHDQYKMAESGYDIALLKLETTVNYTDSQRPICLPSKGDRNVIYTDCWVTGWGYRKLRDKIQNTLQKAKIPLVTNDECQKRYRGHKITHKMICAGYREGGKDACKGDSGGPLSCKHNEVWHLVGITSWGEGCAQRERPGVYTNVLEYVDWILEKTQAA

[5] = target: T5, human FXI catalytic domain (residues 388-625, Swissprot P03951) (human, UniProt P03951 388-625); assay: SPR (BIACORE T200), IgG captured by goat anti-human IgG-Fc, FXI catalytic domain 0-200 nM as analyte, 25 C, 1:1 model, n=2
T5 construct: it is treated here as the same molecule; also called FXI CD; FXIa CD
T5 sequence (P03951 388-625 limits assumed, form in doubt, one chain of several): as the sequence (chain, as listed by the source, form in doubt, chain 2 of 2) above, with I59S, D156E, L225V, A238V counted along it

[6] = target: T1, human FXI zymogen; assay: solution equilibrium titration (SET), MSD ECL read-out, 1:2 fit, n=3; apparent KD (avidity possible)
[7] = target: T2, human FXI activated (human Factor XIa, …); assay: as above
[8] = target: T1, human FXI zymogen; assay: SET
[9] = target: T5, human FXI catalytic domain (residues …); assay: SPR (BIACORE T200), Fab amine-coupled on CM5 chip, FXI catalytic domain 0-200 nM as analyte, 25 C, 1:1 model, n=3
[10] = target: T1, human FXI zymogen; assay: SET KD compared with SPR KD for the FXI catalytic domain
[11] = target: T2, human FXI activated (human Factor XIa, …); assay: as above
[12] = target: T1, human FXI zymogen; assay: solution equilibrium titration (SET), MSD ECL read-out, 1:1 fit, n=3
[13] = target: T2, human FXI activated (human Factor XIa, …); assay: as above

T1 sequence (P03951 19-625 C226S limits assumed): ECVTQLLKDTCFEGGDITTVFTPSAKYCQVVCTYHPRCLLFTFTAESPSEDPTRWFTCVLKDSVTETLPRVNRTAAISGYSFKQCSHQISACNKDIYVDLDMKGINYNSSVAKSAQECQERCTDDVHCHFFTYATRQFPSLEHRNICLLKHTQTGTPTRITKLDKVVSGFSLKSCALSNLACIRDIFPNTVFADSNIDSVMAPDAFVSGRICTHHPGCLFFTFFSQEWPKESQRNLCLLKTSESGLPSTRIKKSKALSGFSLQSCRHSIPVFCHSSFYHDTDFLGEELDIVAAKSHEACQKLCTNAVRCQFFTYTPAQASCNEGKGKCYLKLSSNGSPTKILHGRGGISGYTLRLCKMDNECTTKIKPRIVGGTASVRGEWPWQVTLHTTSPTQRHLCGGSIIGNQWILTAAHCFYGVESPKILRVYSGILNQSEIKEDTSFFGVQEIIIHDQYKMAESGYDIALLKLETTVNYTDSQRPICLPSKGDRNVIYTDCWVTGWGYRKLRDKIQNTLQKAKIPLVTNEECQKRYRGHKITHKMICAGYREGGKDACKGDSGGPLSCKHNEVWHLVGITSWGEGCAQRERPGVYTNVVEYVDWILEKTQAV
T2 sequence (P03951 19-387 C226S limits assumed, form in doubt, chain 1 of 2): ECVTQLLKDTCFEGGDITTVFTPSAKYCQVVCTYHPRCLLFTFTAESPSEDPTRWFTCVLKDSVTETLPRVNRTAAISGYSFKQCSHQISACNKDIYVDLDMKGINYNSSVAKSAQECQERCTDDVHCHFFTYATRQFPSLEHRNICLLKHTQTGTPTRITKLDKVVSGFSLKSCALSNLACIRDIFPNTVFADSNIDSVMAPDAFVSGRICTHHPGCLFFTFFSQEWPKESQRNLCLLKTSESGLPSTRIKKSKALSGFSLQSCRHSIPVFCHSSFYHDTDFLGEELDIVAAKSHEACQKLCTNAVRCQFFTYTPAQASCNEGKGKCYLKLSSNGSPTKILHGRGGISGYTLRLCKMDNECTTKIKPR
T2 sequence (P03951 388-625 limits assumed, form in doubt, chain 2 of 2): as the sequence (chain, as listed by the source, form in doubt, chain 2 of 2) above, with I59S, D156E, L225V, A238V counted along it

| Binder | IC50, inhibition of thrombin generation in the TGA with pooled human plasma [1] [nM] | IC50, inhibition of the enzymatic activity of full length human FXIa (cleavage of the fluorescent peptide D-Leu-Pro-Arg*Rh110-D-Pro) [2] [nM] | Kd [3] [nM] | Kd [4] [nM] | Kd [5] [nM] | koff [5] [s⁻¹] | kon [5] [M⁻¹ s⁻¹] | Kd [6] [nM] | Kd [7] [nM] | fold higher affinity than to the activated FXI [8] [fold] | Kd [9] [nM] | koff [9] [s⁻¹] | kon [9] [M⁻¹ s⁻¹] | fold higher affinity than to the catalytic domain [10] [fold] | fold higher affinity than to the catalytic domain [11] [fold] | Kd [12] [nM] | Kd [13] [nM] |
| --- | --- | --- | --- | --- | --- | --- | --- | --- | --- | --- | --- | --- | --- | --- | --- | --- | --- |
| NOV1401 (human IgG1/lambda antibody with D265A and P329A in the Fc) (antibody, V domains shown, also called NOV1401-IgG; NOV1401-Antibody) VH: QVQLLESGGGLVQPGGSLRLSCAASGFTFSTAAMSWVRQAPGKGLEWVSGISGSGSSTYYADSVKGRFTISRDNSKNTLYLQMNSLRAEDTAVYYCARELSYLYSGYYFDYWGQGTLVTVSS VL: QSVLTQPPSASGTPGQRVTISCSGSSSNIGSNDVSWYQQLPGTAPKLLIYKNYNRPSGVPDRFSGSKSGTSASLAISGLQSEDEADYYCSAWDQRQFDVVFGGGTKLTVLG | 24 | ~0.16 | 0.005 | 0.0125 | 21 | 0.00088 | 42000 | 0.0013 | 0.0047 |  |  |  |  |  |  |  |  |
| NOV1401-Fab (Fab, V domains shown, also called Fab of the NOV1401 antibody; Fab portion of NOV1401) VH: QVQLLESGGGLVQPGGSLRLSCAASGFTFSTAAMSWVRQAPGKGLEWVSGISGSGSSTYYADSVKGRFTISRDNSKNTLYLQMNSLRAEDTAVYYCARELSYLYSGYYFDYWGQGTLVTVSS VL: QSVLTQPPSASGTPGQRVTISCSGSSSNIGSNDVSWYQQLPGTAPKLLIYKNYNRPSGVPDRFSGSKSGTSASLAISGLQSEDEADYYCSAWDQRQFDVVFGGGTKLTVLG |  |  |  |  |  |  |  |  |  | 5 | 19 | 0.00061 | 32000 | 300 | 66 | 0.062 | 0.305 |
